Results taken from paper PMC3409642 (Pharmaceutical research, 2012).

Columns and labels:
Assay in all cases: not read
Conditions in all cases: pH 7.4; 37.0 °C
not read [1] = substrate: CN(C)CCc1c[nH]c2cccc(O)c12
not read [2] = substrate: C=CCc1ccc(O)c(OC)c1
not read [3] = substrate: Oc1ccc(-c2ccccc2)cc1
not read [4] = substrate: Cc1ccc2oc(=O)cc(O)c2c1
not read [5] = substrate: COC(=O)c1ccc(O)cc1

B1: human UGT1A9 (Homo sapiens) (protein)
chain: GKLLVVPMDGSHWFTMRSVVEKLILRGHEVVVVMPEVSWQLGRSLNCTVKTYSTSYTLEDLDREFKAFAHAQWKAQVRSIYSLLMGSYNDIFDLFFSNCRSLFKDKKLVEYLKESSFDAVFLDPFDNCGLIVAKYFSLPSVVFARGILCHYLEEGAQCPAPLSYVPRILLGFSDAMTFKERVRNHIMHLEEHLLCHRFFKNALEIASEILQTPVTEYDLYSHTSIWLLRTDFVLDYPKPVMPNMIFIGGINCHQGKPLPMEFEAYINASGEHGIVVFSLGSMVSEIPEKKAMAIADALGKIPQTVLWRYTGTRPSNLANNTILVKWLPQNDLLGHPMTRAFITHAGSHGVYESICNGVPMVMMPLFGDQMDNAKRMETKGAGVTLNVLEMTSEDLENALKAVINDKSYKENIMRLSSLHKDRPVEPLDLAVFWVEFVMRHKGAPHLRPAAHDLTWYQYHSLDVIGFLLAVVLTVAFITFKCCAYGYRKCLGKKGRVKKAHKSKTH
- Km (not read [1]): 748 µM
- Vmax (not read [1]): 0.00598 µmol/min/mg
- Vmax/Km (not read [1]): 8 µL/min/mg
- Km (not read [2]): 25 µM
- Vmax (not read [2]): 0.001 µmol/min/mg
- Vmax/Km (not read [2]): 40 µL/min/mg
- Km (not read [3]): 56.2 µM
- Vmax (not read [3]): 0.00124 µmol/min/mg
- Vmax/Km (not read [3]): 22 µL/min/mg
- Km (not read [4]): 57.8 µM
- Vmax (not read [4]): 0.000225 µmol/min/mg
- Vmax/Km (not read [4]): 4 µL/min/mg
- Km (not read [5]): 101 µM
